In US7419813B2, “Fructosyl peptide oxidase” (Kikkoman Corporation, priority 2001, dated 2008):

Assays:
[1] = Enzyme activity assay, fructosyl glycine substrate; type: biochemical; settings: for Substrate specificity (% relative activity) FG: crude enzyme sample; for relative activity for fructosyl glycine: purified oxidase, compared to 100% activity for fructosyl valyl histidine
Description: Enzyme activities of the oxidase of the invention and the oxidase of the invention that have less action on ε-fructosyl lysine (hereinafter, the term “the oxidases of the invention” may comprise both the oxidase of the invention and the oxidase of the invention that have less action on ε-fructosyl lysine) may principally be determined by determining the amount of α-ketoaldehyde, peptide, hydrogen peroxide or the like which are produced through enzyme reaction or by determining the amount of oxygen consumed by the enzyme reaction. Hereinafter, a method for determining the amount of hydrogen peroxide will be described as one example. Unless otherwise noted, fructosyl valyl histidine is used as a substrate for determining the activities of the oxidases of the invention. Titer of the enzyme is defined such that an amount of enzyme for producing 1 μmol hydrogen peroxide per minute is 1U as determined using a fructosyl valyl histidine substrate. 624 mg of fructosyl valyl histidine is dissolved in ion exchange water to a constant volume of 10 ml. Alternatively, fructosyl glycine or ε-fructosyl lysine of 357 mg or 462 mg, respectively, may be dissolved in ion exchange water to a constant volume of 10 ml to be used as a substrate. Fructosyl valine histidine was prepared as described in Japanese Patent Application Laid-Open (kohyo) No. 2001-95598. Fructosyl glycine and ε-fructosyl lysine were prepared according to a method of Horiuchi et al. (Agric. Biol. Chem., 53, 103-110, 1989; Agric. Biol. Chem., 55, 333-338, 1991). 2.7 ml of Reagent 1, 100 μl of Reagent 2 and 100 μl of enzyme solution are mixed and pre-heated at 30° C. for 5 minutes. Then, 100 μl of Reagent 3 is added and thoroughly mixed to determine absorbance at 510 nm using a spectrophotometer (U-[…], Hitachi, Ltd.). Measurement values indicate changes in the absorbance per minute at 510 nm after 1 to 3 minutes. A control solution was prepared in the same manner as described above except 100 μl ion exchange water was added instead of 100 μl Reagent 3. A standard solution of hydrogen peroxide and ion exchange water were used instead of Reagent 3 and the enzyme solution, respectively, to prepare a graph showing relationship with respect to the level of color. Referring to this graph, micromole of hydrogen peroxide produced per minute at 30° C. is calculated and used as the unit for expressing the activity of the enzyme solution. The presence of action on ε-fructosyl lysine can be determined in the same manner by using Reagent 3 (substrate solution) containing ε-fructosyl lysine substrate instead of fructosyl valyl histidine substrate.

[2] = Optimum pH of the enzyme reaction; type: biochemical; settings: purified oxidase, 30° C.; for optimum pH (range): relative activities of 70% or higher
Experimental: For example, 200 mM acetic acid buffer (pH 3.0-6.0), 200 mM MES-NaOH (pH 6.0-7.0), 200 mM Tris buffer (pH 6.8-9.0), 200 mM potassium phosphate buffer (pH 6.5-8.0) and 200 mM glycine buffer (pH 8.0-12.0) are used as buffers to perform enzyme reactions at the indicated pH at 30° C., thereby determining optimal pH. For example, the oxidases of the invention may have an optimal pH at 5.0-9.0, preferably pH 6.0-8.0. For example, 200 mM acetic acid buffer (pH 3.0-6.0), 200 mM MES-NaOH (pH 6.0-7.0), 200 mM Tris buffer (pH 6.8-9.0), 200 mM potassium phosphate buffer (pH 6.5-8.0) and 200 mM glycine buffer (pH 8.0-12.0) are used as buffers to perform enzyme reactions at the indicated pH at 30° C., thereby determining optimal pH. For example, the oxidases of the invention that have less action on ε-fructosyl lysine may have an optical pH at 5.0-9.0, preferably at 6.0-8.0. Enzyme reaction was monitored in 200 mM acetic acid buffer (pH 3.0-6.0), 200 mM MES-NaOH (pH 6.0-7.0), 200 mM Tris buffer (pH 6.8-9.0), 200 mM potassium phosphate buffer (pH 6.5-8.0) or 200 mM glycine buffer (pH 8.0-12.0) at the indicated pH values at 30° C. […] Enzyme reaction was monitored in 200 mM acetic acid buffer (pH 4.0-6.0), 200 mM MES-NaOH (pH 6.0-7.0), 200 mM Tris buffer (pH 7.0-8.5), 200 mM potassium phosphate buffer (pH 6.0-8.0) or 200 mM glycine buffer (pH 8.0-9.0) at the indicated pH values at 30° C.

[3] = type: physicochemical; settings: for pH of maximum remaining activity: 10 min; for stable pH range: purified oxidase, 30° C. for 10 minutes, remaining activities of 70% (Eupenicillium 60%) or higher
Experimental: For example, 200 mM acetic acid buffer (pH 3.0-6.0), 200 mM MES-NaOH (pH 6.0-7.0), 200 mM Tris buffer (pH 6.8-9.0), 200 mM potassium phosphate buffer (pH 6.5-8.0) and 200 mM glycine buffer (pH 8.0-12.0) are used as buffers to perform enzyme reactions at the indicated pH at 30° C. for 10 minutes, thereby determining the remaining activities of the oxidases of the invention. For example, the oxidases of the invention may have a stable pH at 5.0-10.0, preferably at 6.0-9.0. For example, 200 mM acetic acid buffer (pH 3.0-6.0), 200 mM MES-NaOH (pH 6.0-7.0), 200 mM Tris buffer (pH 6.8-9.0), 200 mM potassium phosphate buffer (pH 6.5-8.0) and 200 mM glycine buffer (pH 8.0-12.0) are used as buffers to perform enzyme reactions at the indicated pH at 30° C. for 10 minutes, thereby determining the remaining activities of the oxidases of the invention. For example, the oxidases of the invention that have less action on ε-fructosyl lysine may have a stable pH range at 5.0-10.0, preferably at 6.0-9.0. The inventive oxidase was treated with 200 mM acetic acid buffer (pH 3.0-6.0), 200 mM MES-NaOH (pH 6.0-7.0), 200 mM Tris buffer (pH 6.8-9.0), 200 mM potassium phosphate buffer (pH 6.5-8.0) or 200 mM glycine buffer (pH 8.0-12.0) at the indicated pH values at 30° C. for 10 minutes, and its remaining activity was determined. […] The inventive oxidase was treated with 200 mM acetic acid buffer (pH 3.0-6.0), 200 mM MES-NaOH (pH 6.0-7.0), 200 mM Tris buffer (pH 7.0-8.5), 200 mM potassium phosphate buffer (pH 6.0-8.0) or 200 mM glycine buffer (pH 8.0-12.0) at the indicated pH values at 30° C. for 10 minutes, and the remaining activity thereof was monitored.

[4] = relative to activity for ε-fructosyl lysine (100%)

Molecule | Substrate specificity (% relative activity) FG ([1]; relative to activity for fructosyl valyl histidine (100%)) [%] | Substrate specificity (% relative activity) FG [1, 4] [%] | relative activity for fructosyl glycine [1] [%] | pH of maximum activity (most preferable pH) [2] [pH] | optimum pH (range) [2] | pH of maximum remaining activity [3] [pH] | stable pH range [3]
Eupenicillium terrenum ATCC 18547: fructosyl peptide oxidase produced by Eupenicillium terrenum ATCC 18547 with less action on ε-fructosyl lysine; amino acid sequence SEQ ID NO: 3 (protein, listed as Eupenicillium terrenum) MAHSRASTKVVVVGGGGTIGSSTALHLIRSGYTPSNITVLDVYKTPSLQSAGHDLNKIMGIRLRNGPDLQLSLESLDMWQNDELFKPFFHQVGMIDCSSSKEGIENLRRKYQTLLDAGIGLEKTNVWLESEDEILAKAPNFTREQVKGWKGLFCTDGGWLAAAKAINAIGIFLQDKGVKFGFGGAGTFQQPLFAADGKTCIGLETTDGTKYFADKVVLAAGAWSPTLVDLEDQCVSKAWVFAHIQLTPKEADAYKNVPVVYDGEYGFFFEPNEYGVIKVCDEFPGFSRFKLHQPYGAASPKMISVPRSHAKHPTDTYPDASEVTIRKAIARFLPEFKDKELFNRTMCWCTDTADANLLICEHPKWKNFILATGDSGHSFKLLPNIGKHVVELLEGSLSQEMAGAWRWRPGGDALRSRRGAPAKDLAEMPGWKHDAHL | 182 | 1862 | 182 | 7.0 | 6.0-8.0 pH | 8.0 | 6.0-9.0 pH
Coniochaeta sp. NISL 9330: fructosyl peptide oxidase produced by Coniochaeta sp. NISL 9330 (FERM BP-7798) with less action on ε-fructosyl lysine; amino acid sequence SEQ ID NO: 1 (protein, listed as Coniochaeta sp.) MTSNRADTRVIVVGGGGTIGSSTALHLVRSGYAPANITVLDTFEIPSAQSAGHDLNKIMGIRLRNKVDLQMSLEARQMWKEDELFQPFFHNTGRMDCEHTPEGIEDLKKQYQALHDAGAGLEKTHAWLDNEDEILSKMPLLQRDQIQGWKAIWSQDGGWLAAAKAINAIGQFLKERGVKFGFGGAGSFKQPLFDDEGTTCIGVETADGTKYYADKVVLAAGAWSPTLVDLEDQCCSKAWVYAHIQLTPEEAAEYKGVPVVYNGEFGFFFEPNEFGVIKVCDEFPGFSRFKEHQPYGAPSPKHISVPRSHAKHPTDTYPDASEVSIKKAIATFLPRFQDKELFNRALCWCTDTADAALLMCEHPKWKNFILATGDSGHSFKILPNVGKHVVELIEGRLPEEMAYQWRWRPGGDALKSRRAAPPKDLADMPGWKHDPKL |  | 65 | 39 | 7.0 | 6.0-8.0 pH | ~7.0 | 5.0-9.0 pH
